In the RNAGym collection of RNA variant scans (doi:10.7554/elife.90254):

B1: OR4K15 (parent)
chain: GUUAACGGUCAUAGGCCAUGGAAACUAGGAGCACCAUUUCGCUGCCAGUGAAGAAAUGAACAAAGAAAAUCUGGGCCAGGCAGGCAUCAAAAGAAAUAGUCUUGCGCUCAACCAGAAAGUCUGUAAUCAUUUUAAGGGUA

Variants of: B1
Assay: self-cleavage, relative activity (ratio to wild type); higher = more cleavage; in vitro, sequencing; the parent is a self-cleaving ribozyme

Variant	self-cleavage
A62G A135U	1.67
A64U U72A	0.05
A66C A92G	1.21
A62G A92G	1.22
A64G A90U	1.58
A64G A90G	1.13
A64U G75A	0.1
A62C U132C	1.25
A63G U72G	0.29
A63G A92G	1.66
A64G A67G	1.27
A63U A68G	0.87
A64U A92G	1.11
A63G A125G	0.64
A63U A118U	1.02
A66G A94G	1.55
A64G A68G	1.54
A64U U108A	0.02
A63G A78G	0.31
A63G A78U	0.22
A66G A90C	0.17

Variant	self-cleavage
A66G A90U	1.31
A64G A78U	0.4
A64U U100C	2.38
A64U U100A	0.29
A63G A67U	1.45
A63G A67G	1.6
A63U A98U	1.84
A63G U133C	1.18
A62G C105A	0.03
A64G G106U	0.02
A64G A66C	1.17
A63U A91U	1.05
A64C G80A	0.2
A63G U127A	1.47
A63G U127C	0.58
A64U A91G	1.04
A62G A116G	0.64
A64G A91C	1.76
A64G U102A	0.68
A62G A67G	0.96
A62G A67U	1.82

Variant	self-cleavage
A62G A67C	1.96
A63U A90G	1.76
A64G A111U	0.1
A64G A111G	0.05
A64G U133C	1.5
A64G U133A	1.52
A64G U133G	1.05
A62U A66G	1.58
A64G U122C	1.81
A64G U122A	0.95
A62G A64U	1.23
A64U A89G	1.6
A63G U100C	2.31
A63G G123A	2.17
A64G U103A	0.55
A64C A96G	1.27
G65U A90G	0.96
A62G U72C	0.24
A63U A86C	1.78
A66C U100C	1.6
A62U U72C	0.19

Variant	self-cleavage
A64G C105U	0.12
A66C A78G	0.32
A64G A98G	0.59
A62U G93A	2.2
A64G U127A	2.12
A63U U131C	1.33
A63U U131A	2.65
A62C A69G	0.62
A64U A69G	1.86
A62G A114U	0.02
A64U A134G	1.44
A63G A86G	1.47
A63G A86C	1.21
A64G A86G	1.15
A64G A134U	1.07
A62G C101U	0.41
A62G A98G	0.4
A62G A98U	1.39
A64G A126G	1.05
A64U A98U	1.98
